# In patent publication US20100015637A1 (AbbVie / Abbott, published 2010):
# T1: CHO human PlGF-1 fragment (comprising amino acids 17-131; ATCC PTA-8540) (human, UniProt P49763 35-221)
# T1 sequence: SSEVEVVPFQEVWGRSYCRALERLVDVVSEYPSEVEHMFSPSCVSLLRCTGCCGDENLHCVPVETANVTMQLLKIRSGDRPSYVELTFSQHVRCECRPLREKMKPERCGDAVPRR
# T2: CHO human PlGF-1 comprising amino acids 1-137 (human PlGF-1-His (1-131), CHO 6305) (human, UniProt P49763 19-221, N-glycans at N21 (completely glycosylated) and N89 (partially glycosylated))
# T2 construct: Mature human PlGF-1 with 6xHis tag (137 amino acids); also called CHO (1-137)
# T2 sequence: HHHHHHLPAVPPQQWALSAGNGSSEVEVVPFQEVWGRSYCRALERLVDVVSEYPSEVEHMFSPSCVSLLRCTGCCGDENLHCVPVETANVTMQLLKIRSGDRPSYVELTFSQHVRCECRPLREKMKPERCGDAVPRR
# T3: human PlGF-1 comprising amino acids 1-137 produced in human embryonic kidney cells (human, UniProt P49763 19-221)
# T3 construct: Mature human PlGF-1 with 6xHis tag; also called HEK (1-137); full length HEK human PlGF-1 (1-137)
# T3 sequence: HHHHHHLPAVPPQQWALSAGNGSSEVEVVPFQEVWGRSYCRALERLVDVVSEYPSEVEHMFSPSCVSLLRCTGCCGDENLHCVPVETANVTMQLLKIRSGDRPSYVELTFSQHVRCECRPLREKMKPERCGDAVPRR
# T4: human PlGF-1 fragment (comprising amino acids 17-131) produced in human embryonic kidney cells (human, UniProt P49763 35-221)
# T4 sequence: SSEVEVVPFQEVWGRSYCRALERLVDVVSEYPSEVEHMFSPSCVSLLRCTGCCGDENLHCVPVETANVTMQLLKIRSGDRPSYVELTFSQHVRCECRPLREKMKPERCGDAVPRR
# Tests used:
# [1] = biological target: human PlGF-1 comprising amino acids 1-137 produced in human embryonic kidney cells (human) (UniProt P49763); experiment: Format 2 …, capture MAb264, detection Pb264; sFlt-1 613 pmol/L (ratio 20)
# [2] = biological target: human PlGF-1 comprising amino acids 1-137 produced in human embryonic kidney cells (human) (UniProt P49763); experiment: Format 3 Quantikine ELISA, capture MAb264, detection Pb264; sFlt-1 9200 pmol/L (ratio 300)
# [3] = biological target: human PlGF-1 comprising amino acids 1-137 produced in human embryonic kidney cells (human) (UniProt P49763); experiment: Format 3 Quantikine ELISA, capture MAb264, detection Pb264; sFlt-1 153 pmol/L (ratio 5)
# [4] = biological target: human PlGF-1 comprising amino acids 1-137 produced in human embryonic kidney cells (human) (UniProt P49763); experiment: Format 2 …, capture MAb264, detection Pb264; sFlt-1 9200 pmol/L (ratio 300)
# [5] = biological target: human PlGF-1 comprising amino acids 1-137 produced in human embryonic kidney cells (human) (UniProt P49763); experiment: Format 1 …, capture 2-826-335, detection 1-255-713; sFlt-1 613 pmol/L (ratio 20)
# [6] = biological target: human PlGF-1 comprising amino acids 1-137 produced in human embryonic kidney cells (human) (UniProt P49763); experiment: Format 3 Quantikine ELISA, capture MAb264, detection Pb264; sFlt-1 3067 pmol/L (ratio 100)
# [7] = biological target: recombinant human PlGF-1 (comprising amino acids 1-131) expressed in E. coli (R&D Systems) (human) (UniProt P49763); experiment: … sandwich, capture MAb826, detection pAb264; antigen 0 pg/mL (blank)
# [8] = biological target: T1, CHO human PlGF-1 fragment (comprising …); experiment: … sandwich, capture MAb826, detection pAb264; antigen 60 pg/mL
# [9] = biological target: T2, CHO human PlGF-1 comprising amino acids …; experiment: as above
# [10] = biological target: T1, CHO human PlGF-1 fragment (comprising …); experiment: … sandwich, capture MAb826, detection pAb264; antigen 750 pg/mL
# [11] = biological target: T2, CHO human PlGF-1 comprising amino acids …; experiment: as above
# [12] = biological target: T3, human PlGF-1 comprising amino acids …; experiment: as above
# [13] = biological target: T4, human PlGF-1 fragment (comprising amino …); experiment: as above
# [14] = biological target: T1, CHO human PlGF-1 fragment (comprising …); experiment: … sandwich, capture MAb255, detection pAb264; antigen 0 pg/mL (blank)
# [15] = biological target: T2, CHO human PlGF-1 comprising amino acids …; experiment: as above
# [16] = biological target: T3, human PlGF-1 comprising amino acids …; experiment: as above
# [17] = biological target: T4, human PlGF-1 fragment (comprising amino …); experiment: as above
# [18] = biological target: T4, human PlGF-1 fragment (comprising amino …); experiment: … sandwich, capture MAb255, detection MAb826; antigen 1500 pg/mL
# Outline: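 In a sandwich immunoassay, human PlGF-1 antigen preparations, including recombinant forms expressed in CHO cells, were tested at 0 to 1500 pg/mL. Magnetic microparticles carried a monoclonal anti-human PlGF-1 capture antibody, attached by passive coating and EDAC cross-linking, and a second monoclonal anti-human PlGF-1 antibody labeled with acridinium ester served for detection. At each antigen level, the chemiluminescent signal was read in relative light units (RLU).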
molecule,measurement,setting,value
"native sFlt-1, isolated from human placental tissue (from UniProt P17948 27-687) (receptor)",% Inhibition,[1],89.5%
same,PlGF-1 Measured,[1],82.9 pg/mL
same,% Inhibition,[2],82.2%
same,PlGF-1 Measured,[2],154 pg/mL
same,% Inhibition,[3],24.6%
same,PlGF-1 Measured,[3],652 pg/mL
same,% Inhibition,[4],97.5%
same,PlGF-1 Measured,[4],20 pg/mL
same,% Inhibition,[5],88.3%
same,PlGF-1 Measured,[5],120 pg/mL
same,% Inhibition,[6],80.9%
same,PlGF-1 Measured,[6],166 pg/mL
"monoclonal antibody 2-826-335 (produced by murine hybridoma cell line 2-826-335, ATCC PTA-8539) (antibody, mouse IgG1, V domains shown, also called MAb826) VH: QVQLKQSGPGLVQPSQSLSITCTVSGFSLTTYGIHWVRQSPGKGLEWLGVMWSGGDTDYDAAFISRLSISKDNSKSQVFFKMNSLQANDTGIYYCARYRFYGMDYWGQGTSVTVSS VL: AIQMTQSSSSFSVSLGDRVTITCKASEDIYNRFAWYQQKPGNAPRLLISGAASLEAGVPSRFSGSGSGQDYTLSITSLQTEDVATYYCQQYWSTPWTFGGGTKLEIKR",RLU,[7],6410 RLU
same,RLU,[8],28200 RLU
same,RLU,[9],22200 RLU
same,RLU,[10],239000 RLU
same,RLU,[11],180000 RLU
same,RLU,[12],423000 RLU
same,RLU,[13],336000 RLU
"monoclonal antibody 1-255-713 (produced by murine hybridoma cell line 1-255-713, ATCC PTA-8536) (antibody, mouse IgG2a, V domains shown, also called MAb255) VH: QVHLQQSGAELMKPGASVKISCKATGYTFSSYWIEWVKQRPGHGLEWIGEILPGSVSNNFNEKFKDKATLTADPSSNTAYIQVSSLTSEDSAVYYCARSTGFYYGGNYFDHWGQGTTLAVSS VL: DVVMTQTPLSLPVSPGDQASISCRSSQSLVHSNGHTYLHWYLQKPGQSPKLLIYKVSNRFSGVPDRVSGSGSGTDFTLKISRVEAEDLGVYFCSQSTHVPPTFGGGTKLEIKR",RLU,[14],14400 RLU
same,RLU,[15],14500 RLU
same,RLU,[16],14200 RLU
same,RLU,[17],14200 RLU
same,RLU,[18],1.04e+06 RLU
